{
  "source": "paper PMC5138847",
  "about": "(Scientific Reports, 2016)",
  "molecules": {"B1": {"name": "DrUox (zebrafish urate oxidase, uricase) (Danio rerio) (protein)", "chain": "MATTSNQNVEFVRTGYGKNMVKVLHIRREGNHHHIIELIANVQLTLKTRKDYLTGDNSDIIPTDTVKNTVHALAKLKGIKSIESFALDICEHFLTAFNHVTRVKVNIDEVPWKRLEKNGVEHNHAFIHCPEALRFCEAEQYLSKTPVVHSGLKDMKVLKTTQTGFEGFLRDRFTTLTDAKDRFFCTSVYARWRYNTINVAFDAAWKAVKDTVIQKFAGPYDRGEYSPSVQKTLYDTQLLVLDRIPEVEEIEIIMPNQHYFVIDMTKIGLSNKDEVYLPLDNPSGNITGTVCRKPRARM"}, "B2": {"name": "zebrafish urate oxidase, His-tagged wild type (enzyme, zebrafish (Danio rerio), UniProt Q6DG85 1-298, looked up)", "chain": "B1 chain", "notes": "also called wt DrUox; His-tagged wt; source: E. coli BL21-CodonPlus(DE3), purified (Talon cobalt resin)"}, "B3": {"name": "zebrafish (Danio rerio) urate oxidase, untagged wild type (enzyme, UniProt Q6DG85 1-298, looked up)", "chain": "B1 chain", "notes": "cDNA IMAGE:100059545; In the crystal, electron density runs from Gly8 to Pro294; Cys129 forms an inter-subunit disulfide (chains A-C and B-D); also called DrUox; Uox; source: E. coli BL21-CodonPlus(DE3), purified (xanthine-agarose column, eluted with urate)"}, "B4": {"name": "zebrafish urate oxidase F216S mutant, His-tagged (enzyme, zebrafish (Danio rerio), UniProt Q6DG85 1-298, looked up)", "chain": "B1 chain with F216S", "notes": "also called F216S DrUox; mutant DrUox; source: E. coli BL21-CodonPlus(DE3), purified (Talon cobalt resin)"}},
  "key": {"[1]": {"target": "T1, DrUox (zebrafish urate oxidase, uricase) (Danio rerio, UniProt Q6DG85, F216S)", "T1 construct": "gene uox; full length, 298 aa; N-terminal 6xHis tag (pET28b) for wt and F216S kinetics, untagged for crystals; E. coli BL21-CodonPlus(DE3); homotetramer", "T1 sequence (Q6DG85 1-298 F216S)": "B1 chain with F216S", "experiment": "UV absorbance at […] nm, global fit to competitive inhibition", "type": "biochemical", "conditions": "read-out: Xanthine / Ki"}, "[2]": {"target": "T2, DrUox (zebrafish urate oxidase, uricase) (Danio rerio, UniProt Q6DG85)", "T2 construct": "gene uox; full length, 298 aa; N-terminal 6xHis tag (pET28b) for wt and F216S kinetics, untagged for crystals; E. coli BL21-CodonPlus(DE3); homotetramer", "T2 sequence (Q6DG85 1-298)": "B1 chain", "experiment": "UV absorbance, global fit to competitive inhibition", "type": "biochemical", "conditions": "read-out: Xanthine / Ki"}, "[3]": {"substrate": "O=c1[nH]c(=O)c2[nH]c(=O)[nH]c2[nH]1", "experiment": "purified protein", "conditions": "100 mM potassium phosphate pH 7.6, 25 °C, equimolar DrUrah"}, "[4]": {"target": "the molecule itself", "experiment": "SEC; HPLC-SEC on a Superdex 200 increase 3.2/300 column, native conditions, about 13 ug of each sample, elution monitored at 280 nm, calibrated with standards"}, "[5]": {"target": "the molecule itself", "experiment": "crystal structure; untagged DrUox 10 mg/ml (10 mM Tris-HCl pH 7.6, 1 mM EDTA), crystallised in 0.1 M Tris-HCl pH 8.5, 8% PEG 8000; space group P21, two tetramers in the asymmetric unit; 2.8 A"}},
  "note": "Residue numbers refer to the chain shown, from its start. Numbers in names are those of the source.",
  "data": [
    {"molecule": "O=c1[nH]c(=O)c2[nH]cnc2[nH]1", "note": "[xanthine]", "values": [
      {"measurement": "Ki", "setting": "[1]", "value": "59.2 ± 8.2", "unit": "µM"},
      {"measurement": "Ki", "setting": "[2]", "value": "4.3 ± 0.27", "unit": "µM"}
    ]},
    {"molecule": "B1", "values": [
      {"measurement": "Km", "setting": "[3]", "value": "11 ± 1", "unit": "µM"},
      {"measurement": "kcat", "setting": "[3]", "value": 3.95, "unit": "s⁻¹"},
      {"measurement": "kcat/Km", "setting": "[3]", "value": 360000, "unit": "M⁻¹ s⁻¹"}
    ]},
    {"molecule": "B2", "values": [
      {"measurement": "stoichiometry N", "setting": "[4]", "value": 4}
    ]},
    {"molecule": "B3", "values": [
      {"measurement": "stoichiometry N", "setting": "[5]", "value": 4}
    ]},
    {"molecule": "B4", "values": [
      {"measurement": "Km", "setting": "[3]", "value": "284 ± 31", "unit": "µM"},
      {"measurement": "kcat", "setting": "[3]", "value": 3.99, "unit": "s⁻¹"},
      {"measurement": "kcat/Km", "setting": "[3]", "value": 14000, "unit": "M⁻¹ s⁻¹"},
      {"measurement": "stoichiometry N", "setting": "[4]", "value": 4}
    ]}
  ]
}
